± gives the uncertainty stated by the source.
Assay: protein stability index of a GFP-peptide fusion (yeast GPS) (PSI 1-4); higher = more stable; sorted into four equal gates, so the index is relative within each strain
In short: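 Sequencing reads from sorted gates were used to score each peptide. The library consisted of tiled 17-residue yeast protein peptides fused downstream of GFP on a Cherry-expressing plasmid, pooled and carried in yeast. Mid-log cultures in leucine-free medium were split into four equal gates by GFP/Cherry ratio, and each gate's plasmids were PCR-amplified and Illumina-sequenced. The protein stability index adds up, over all gates, the read frequency multiplied by the gate number.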

Sequence | protein stability index (doa10∆) | protein stability index (pdr5∆) | protein stability index (san1∆) | protein stability index (ubr1∆)
SDLNLTDRQKKLLGVDM [YLR018C/POM34] | 3.17 ± 0.052 | 3.09 ± 0.055 | 3.19 ± 0.039 | 3.23 ± 0.039
EKPQFKDGETTDANGKT [RPO26] | 3.36 ± 0.076 | 3.3 ± 0.047 | 3.36 ± 0.059 | 3.28 ± 0.05
SIVLDSEHFDVNDNPDI [DIS3] | 2.96 ± 0.053 | 3.11 ± 0.053 | 2.74 ± 0.093 | 3.1 ± 0.046
MSASNANDFQLTIVTCK [SRB8] | 2.33 ± 0.044 | 2.41 ± 0.037 | 2.42 ± 0.043 | 2.03 ± 0.031
HLEEYGYLIQVLLTFLQ [YCS4] | 1.59 ± 0.078 | 1.35 ± 0.09 | 1.21 ± 0.17 | 1.13 ± 0.097
EPPLSYEQHIENIEPLD [PRP8] | 2.44 ± 0.087 | 2.97 ± 0.097 | 2.32 ± 0.12 | 3.03 ± 0.27
KREKRVFLKHSLSIKLA [RPN6] | 2.58 ± 0.083 | 3.22 ± 0.09 | 2.75 ± 0.086 | 2.81 ± 0.094
VIEAKINHEDGFIETTE [RPN3] | 1.17 ± 0.16 | 1.37 ± 0.11 | 1.3 ± 0.19 | 1.13 ± 0.083
TLQLYMVHREFLKLANG [RGR1] | 1.49 ± 0.047 | 1.63 ± 0.05 | 2.07 ± 0.058 | 2.28 ± 0.049
KKIENTMLENITLRGVE [RPO21] | 3.38 ± 0.12 | 2.79 ± 0.12 | 2.98 ± 0.07 | 3.09 ± 0.077
YIKSATLYSVKSKEDMK [SNU114] | 3.22 ± 0.17 | 3.31 ± 0.13 | 3.18 ± 0.082 | 3.11 ± 0.087
QEDELDEGTALSRLGLK [RPB10] | 3.41 ± 0.073 | 3.38 ± 0.086 | 3.5 ± 0.058 | 3.06 ± 0.079
EHRRYDDQLKQRRQNIR [RPT4] | 2.62 ± 0.18 | 2.46 ± 0.18 | 2.29 ± 0.14 | 2.69 ± 0.12
KIMVAEWYLSHLCSGIL [SRB8] | 1.35 ± 0.056 | 1.39 ± 0.057 | 1.24 ± 0.077 | 1.47 ± 0.049
SHAVEFFMSERSSRLHI [YML103C/NUP188] | 2.5 ± 0.067 | 2.73 ± 0.079 | 2.75 ± 0.087 | 2.4 ± 0.049
PFLLMELHKKLVEAAKL [YDL116W/NUP84] | 1.41 ± 0.11 | 1.13 ± 0.093 | – | 1.25 ± 0.13
SPELSLQRHLSLGIRPC [RRP43] | 2.54 ± 0.041 | 2.65 ± 0.053 | 2.73 ± 0.052 | 3.06 ± 0.048
TRQFEGRSNEIVKTTTK [PRP8] | 3.14 ± 0.058 | 3.12 ± 0.07 | 2.89 ± 0.055 | 3 ± 0.044
TPAAATSPIDIREKVAK [SNF2] | 2.75 ± 0.11 | 2.84 ± 0.11 | 2.63 ± 0.11 | 3.01 ± 0.1
RPKPVSPPCYIIDHIPG [SNF5] | 1.79 ± 0.098 | 2.64 ± 0.096 | 2.28 ± 0.12 | 2.25 ± 0.079
GIDLAYNMYDAYGNWFN [PRP8] | 2.94 ± 0.049 | 3.08 ± 0.04 | 3.05 ± 0.058 | 3 ± 0.045
DYLKNIIVENSGTSGDE [RPN2] | 3.43 ± 0.21 | 3.48 ± 0.15 | 3.14 ± 0.057 | 3.29 ± 0.1
ETLKRDRKQSQATNATN [ARP7] | 2.69 ± 0.074 | 2.86 ± 0.082 | 2.39 ± 0.11 | 2.74 ± 0.068
SDSIELLKQYPKDSSST [YJR042W/NUP85] | 2.62 ± 0.047 | 2.77 ± 0.051 | 2.61 ± 0.044 | 2.82 ± 0.041
DDPSKVRLLCRSDGMGN [YLR335W/NUP2] | 2.94 ± 0.26 | 3.66 ± 0.19 | 2.98 ± 0.16 | 2.96 ± 0.15
NNQQRLLLKKLDNFQKS [SMC3] | 2.55 ± 0.06 | 2.64 ± 0.068 | 2.41 ± 0.054 | 2.45 ± 0.043
ALNKISKYYPGVIIKVE [SNU114] | 2.04 ± 0.057 | 1.53 ± 0.07 | 1.9 ± 0.085 | 2.33 ± 0.063

Sequence | protein stability index (doa10∆) | protein stability index (pdr5∆) | protein stability index (san1∆) | protein stability index (ubr1∆)
GAHLGRFVIWTEAAFTK [RPL4A] | 2.87 ± 0.21 | 3.04 ± 0.2 | – | 2.54 ± 0.25
REKALNEEAEARRLKNR [RPL19A] | 3.21 ± 0.075 | 3.15 ± 0.11 | 3.09 ± 0.095 | 3.24 ± 0.066
GVIDDSFDVAISTACPR [SMC4] | 2.59 ± 0.077 | 3.09 ± 0.046 | 2.45 ± 0.058 | 2.7 ± 0.049
PSVKRQKMAELEAARSE [PRP8] | 3.31 ± 0.1 | 3.26 ± 0.075 | 3.31 ± 0.074 | 3.28 ± 0.077
SMVLFFVCLSCSHIFTS [RPB9] | 1.55 ± 0.073 | 1.4 ± 0.081 | 1.43 ± 0.14 | 1.67 ± 0.095
MHKQLAYILAAQKTSFE [RPN1] | 2.37 ± 0.056 | 2.46 ± 0.064 | 2.29 ± 0.067 | 2.43 ± 0.063
LADILKANISLETLEHN [RPO21] | 2.96 ± 0.093 | 2.91 ± 0.1 | 3.11 ± 0.11 | 2.61 ± 0.11
TTKLAFLVEYEGQENNY [SIR4] | 2.87 ± 0.085 | 2.85 ± 0.068 | 2.4 ± 0.1 | 3.19 ± 0.052
TDKVSLSQPVSASKHEY [SIR4] | 2.29 ± 0.079 | 2.53 ± 0.057 | 2.24 ± 0.082 | 1.95 ± 0.041
KILNLEKPLILADYIVE [NUT1] | 1.58 ± 0.1 | 1.56 ± 0.061 | 1.22 ± 0.18 | 1.3 ± 0.07
YTPEESAWIWPMDEETK [RPC25] | 2.34 ± 0.068 | 2.62 ± 0.074 | 2.54 ± 0.086 | 2.65 ± 0.098
EVSCKLLETITYVLNTW [YML103C/NUP188] | 2.15 ± 0.068 | 2.35 ± 0.073 | 2.07 ± 0.11 | 2.11 ± 0.082
ILSLIEEAAGTKMFEDR [SMC2] | 3.27 ± 0.11 | 3.19 ± 0.09 | 3.19 ± 0.084 | 3.24 ± 0.066
IRTQVNTGGESVVKKED [RGR1] | 3.32 ± 0.18 | 3.5 ± 0.093 | 3.41 ± 0.098 | 3.4 ± 0.088
EPKKDKESIVLPTVGFD [YOR098C/NUP1] | 2.43 ± 0.18 | 3.43 ± 0.19 | 3.11 ± 0.16 | 2.92 ± 0.07
MITKRILEVGALASIQT [RPN12] | 1.63 ± 0.083 | – | 2.14 ± 0.22 | –
LPQFRSSIQESLLSLVG [ECM29] | 1.87 ± 0.067 | 2.04 ± 0.048 | 1.7 ± 0.1 | 1.65 ± 0.054
ISIFSTPGSVSLSAYNL [PRP8] | 2.61 ± 0.24 | 2.46 ± 0.09 | – | 1.81 ± 0.22
NNLSNQLETLTGSIRHR [CSE2] | 3.06 ± 0.096 | 2.98 ± 0.06 | 3.04 ± 0.049 | 3.13 ± 0.059
NSILSVRDPWSIDFRTY [SRB2] | 2.71 ± 0.1 | 2.68 ± 0.14 | 2.48 ± 0.22 | 2.98 ± 0.1
ESLREIPYGPDFDNIEF [SEC65] | 3.1 ± 0.072 | 3.12 ± 0.067 | 2.92 ± 0.087 | 3.04 ± 0.057
RQPVEGRSRDGGLRFGE [RPB2] | 2.86 ± 0.29 | – | 2.81 ± 0.17 | –
RKTWKRQNTLSLWRYRK [RPL15A] | 3.45 ± 0.083 | 3.1 ± 0.074 | 3.3 ± 0.052 | 3.36 ± 0.046
RQQKLLEDQQRQQKLLL [SWI1] | 3.2 ± 0.12 | 3.05 ± 0.062 | 3.03 ± 0.077 | 3.25 ± 0.069
VELIESKINELSYYVEE [SMC4] | 3.29 ± 0.12 | 3.42 ± 0.082 | 3.28 ± 0.1 | 3.4 ± 0.083
IMDNFLERTAIELKTDW [RPN1] | 3 ± 0.2 | 2.99 ± 0.18 | 3.07 ± 0.12 | 2.56 ± 0.15
DKKASMIISGSRDKTIK [ASC1] | 2.2 ± 0.17 | 2.54 ± 0.092 | 2.63 ± 0.096 | 1.96 ± 0.079

— the supplement of paper PMC9732359
